Common to all, as to assay: cell-based or functional assay
One assay has as its target T1, rat CNP receptor (NPR-B) (rat, UniProt P16067 17-1047).
T1 sequence (looked up): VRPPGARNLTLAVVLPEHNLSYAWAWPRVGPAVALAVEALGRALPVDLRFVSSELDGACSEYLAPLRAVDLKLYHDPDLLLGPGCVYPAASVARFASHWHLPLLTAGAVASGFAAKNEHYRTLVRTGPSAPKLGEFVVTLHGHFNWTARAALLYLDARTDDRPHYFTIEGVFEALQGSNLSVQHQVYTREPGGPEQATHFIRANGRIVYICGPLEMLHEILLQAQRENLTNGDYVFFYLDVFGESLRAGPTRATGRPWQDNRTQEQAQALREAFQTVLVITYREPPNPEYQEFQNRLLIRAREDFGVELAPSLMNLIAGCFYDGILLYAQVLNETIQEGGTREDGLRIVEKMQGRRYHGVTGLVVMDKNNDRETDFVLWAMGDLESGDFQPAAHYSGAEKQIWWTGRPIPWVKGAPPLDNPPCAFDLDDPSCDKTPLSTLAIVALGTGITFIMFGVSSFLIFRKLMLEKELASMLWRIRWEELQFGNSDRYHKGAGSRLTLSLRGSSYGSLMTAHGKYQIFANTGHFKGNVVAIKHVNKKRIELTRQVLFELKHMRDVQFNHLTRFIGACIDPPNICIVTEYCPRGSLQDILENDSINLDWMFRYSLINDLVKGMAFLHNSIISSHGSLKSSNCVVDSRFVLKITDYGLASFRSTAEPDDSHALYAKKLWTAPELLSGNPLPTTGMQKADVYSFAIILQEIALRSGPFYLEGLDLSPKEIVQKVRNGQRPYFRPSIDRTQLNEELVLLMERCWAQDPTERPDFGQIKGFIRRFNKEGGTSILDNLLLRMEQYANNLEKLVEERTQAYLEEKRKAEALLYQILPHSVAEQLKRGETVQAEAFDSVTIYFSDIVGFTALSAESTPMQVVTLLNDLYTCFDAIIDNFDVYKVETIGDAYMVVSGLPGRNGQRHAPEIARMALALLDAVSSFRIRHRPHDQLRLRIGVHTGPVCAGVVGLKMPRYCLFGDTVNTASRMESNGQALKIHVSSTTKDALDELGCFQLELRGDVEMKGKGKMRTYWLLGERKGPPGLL

The target in another assay is T2, human NPRA (human, UniProt P16066 33-1061).
T2 sequence (looked up): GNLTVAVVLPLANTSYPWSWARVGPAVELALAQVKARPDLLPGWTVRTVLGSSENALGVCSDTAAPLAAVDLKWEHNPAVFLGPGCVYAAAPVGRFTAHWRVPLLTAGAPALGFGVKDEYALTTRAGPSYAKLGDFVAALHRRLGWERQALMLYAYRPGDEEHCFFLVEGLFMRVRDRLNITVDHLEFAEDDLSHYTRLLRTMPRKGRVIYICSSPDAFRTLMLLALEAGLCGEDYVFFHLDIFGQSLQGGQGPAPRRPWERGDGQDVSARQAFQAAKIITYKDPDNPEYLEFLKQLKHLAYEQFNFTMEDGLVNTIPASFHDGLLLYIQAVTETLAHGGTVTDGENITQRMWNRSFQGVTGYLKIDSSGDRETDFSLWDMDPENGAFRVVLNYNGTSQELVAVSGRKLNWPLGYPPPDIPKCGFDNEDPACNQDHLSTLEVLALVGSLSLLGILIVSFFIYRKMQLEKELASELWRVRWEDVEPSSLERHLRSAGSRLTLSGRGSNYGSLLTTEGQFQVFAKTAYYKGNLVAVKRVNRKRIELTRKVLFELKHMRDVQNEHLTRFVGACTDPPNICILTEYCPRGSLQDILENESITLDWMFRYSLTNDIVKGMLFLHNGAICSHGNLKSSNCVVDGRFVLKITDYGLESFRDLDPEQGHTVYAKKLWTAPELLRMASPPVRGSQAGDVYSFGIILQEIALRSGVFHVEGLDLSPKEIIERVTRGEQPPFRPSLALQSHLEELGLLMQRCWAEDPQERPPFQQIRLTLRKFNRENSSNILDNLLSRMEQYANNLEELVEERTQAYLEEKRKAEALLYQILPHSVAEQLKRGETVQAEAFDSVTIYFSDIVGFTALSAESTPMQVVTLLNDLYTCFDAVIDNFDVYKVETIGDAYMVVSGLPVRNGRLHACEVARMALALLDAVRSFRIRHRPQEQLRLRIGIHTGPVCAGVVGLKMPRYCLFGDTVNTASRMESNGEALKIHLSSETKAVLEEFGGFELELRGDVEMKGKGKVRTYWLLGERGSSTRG

Another assay addresses T3, rat ANP receptor (NPR-A) (rat, UniProt P18910 29-1057).
T3 sequence (looked up): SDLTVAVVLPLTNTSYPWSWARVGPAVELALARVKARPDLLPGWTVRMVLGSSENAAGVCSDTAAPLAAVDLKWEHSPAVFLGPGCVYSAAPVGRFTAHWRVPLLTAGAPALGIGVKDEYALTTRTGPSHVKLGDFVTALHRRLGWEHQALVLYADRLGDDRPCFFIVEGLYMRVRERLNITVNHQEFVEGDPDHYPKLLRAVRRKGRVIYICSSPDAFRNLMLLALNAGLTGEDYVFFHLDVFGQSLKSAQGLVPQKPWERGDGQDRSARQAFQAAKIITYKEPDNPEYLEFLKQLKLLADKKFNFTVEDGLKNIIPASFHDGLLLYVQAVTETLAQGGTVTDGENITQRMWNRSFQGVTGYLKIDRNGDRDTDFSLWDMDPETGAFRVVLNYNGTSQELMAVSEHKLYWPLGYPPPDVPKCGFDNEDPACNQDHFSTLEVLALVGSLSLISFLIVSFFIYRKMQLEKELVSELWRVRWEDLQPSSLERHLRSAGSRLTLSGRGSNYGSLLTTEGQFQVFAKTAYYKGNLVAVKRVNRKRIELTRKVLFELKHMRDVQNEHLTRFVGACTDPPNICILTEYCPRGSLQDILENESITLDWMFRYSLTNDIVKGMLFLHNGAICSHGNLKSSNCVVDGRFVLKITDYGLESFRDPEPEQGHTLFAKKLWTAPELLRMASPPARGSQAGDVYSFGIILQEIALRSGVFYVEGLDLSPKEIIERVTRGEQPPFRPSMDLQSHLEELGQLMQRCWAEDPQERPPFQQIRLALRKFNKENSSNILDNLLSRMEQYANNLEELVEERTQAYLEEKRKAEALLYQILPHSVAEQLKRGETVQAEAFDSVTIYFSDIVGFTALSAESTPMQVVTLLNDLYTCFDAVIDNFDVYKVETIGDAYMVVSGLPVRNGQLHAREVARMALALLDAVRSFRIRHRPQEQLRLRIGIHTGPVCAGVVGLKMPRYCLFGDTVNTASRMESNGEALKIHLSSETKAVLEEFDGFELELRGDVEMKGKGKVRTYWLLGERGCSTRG

Substitutions are numbered along the chain they refer to.

B1: TPP-12377 (antibody)
heavy: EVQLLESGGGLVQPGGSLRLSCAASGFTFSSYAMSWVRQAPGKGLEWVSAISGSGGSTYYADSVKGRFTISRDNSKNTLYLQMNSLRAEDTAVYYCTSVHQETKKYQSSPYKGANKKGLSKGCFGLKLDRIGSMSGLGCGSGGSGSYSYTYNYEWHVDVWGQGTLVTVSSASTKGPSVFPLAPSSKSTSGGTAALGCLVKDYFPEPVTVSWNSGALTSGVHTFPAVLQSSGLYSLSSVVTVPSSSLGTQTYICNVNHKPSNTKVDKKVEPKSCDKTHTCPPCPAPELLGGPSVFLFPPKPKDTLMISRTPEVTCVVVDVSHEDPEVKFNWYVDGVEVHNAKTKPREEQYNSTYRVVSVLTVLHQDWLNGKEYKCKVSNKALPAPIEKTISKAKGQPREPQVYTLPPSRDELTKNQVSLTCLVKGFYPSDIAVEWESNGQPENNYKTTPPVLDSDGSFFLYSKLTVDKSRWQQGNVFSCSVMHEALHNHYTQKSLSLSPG
light: QSVLTQPPSVSGAPGQRVTISCTGSSSNIGAGYDVHWYQQLPGTAPKLLIYGNSNRPSGVPDRFSGSKSGTSASLAITGLQAEDEADYYCQSYDSSLSGVVFGGGTKLTVLGQPKAAPSVTLFPPSSEELQANKATLVCLISDFYPGAVTVAWKADSSPVKAGVETTTPSKQSNNKYAASSYLSLTPEQWKSHRSYSCQVTHEGSTVEKTVAPTECS
Regarding B1, in the assay with rat CNP receptor (NPR-B), the “EC50, luminescence of cGMP reporter cells” value amounted to 4.1 nM.

B2: TPP-12897 (antibody)
heavy: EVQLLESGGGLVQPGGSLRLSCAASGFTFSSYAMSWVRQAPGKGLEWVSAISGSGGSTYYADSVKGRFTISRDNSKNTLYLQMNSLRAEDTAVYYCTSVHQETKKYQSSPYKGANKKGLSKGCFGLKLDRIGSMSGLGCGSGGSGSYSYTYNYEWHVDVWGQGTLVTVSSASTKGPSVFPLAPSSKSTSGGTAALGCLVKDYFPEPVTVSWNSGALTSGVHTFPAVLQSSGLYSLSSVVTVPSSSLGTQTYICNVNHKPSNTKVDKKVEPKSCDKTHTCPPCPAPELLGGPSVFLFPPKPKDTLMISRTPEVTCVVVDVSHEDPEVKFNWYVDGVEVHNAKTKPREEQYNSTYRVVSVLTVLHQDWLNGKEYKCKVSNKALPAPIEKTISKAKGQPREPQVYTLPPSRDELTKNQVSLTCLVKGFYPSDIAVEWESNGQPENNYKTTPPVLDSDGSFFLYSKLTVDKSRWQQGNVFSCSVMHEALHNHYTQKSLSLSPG
light: B1 light with S98D
For the molecule B2, the “EC50, luminescence of cGMP reporter cells” value with rat CNP receptor (NPR-B) was 10 nM.

B3: TPP-5661 (antibody)
heavy: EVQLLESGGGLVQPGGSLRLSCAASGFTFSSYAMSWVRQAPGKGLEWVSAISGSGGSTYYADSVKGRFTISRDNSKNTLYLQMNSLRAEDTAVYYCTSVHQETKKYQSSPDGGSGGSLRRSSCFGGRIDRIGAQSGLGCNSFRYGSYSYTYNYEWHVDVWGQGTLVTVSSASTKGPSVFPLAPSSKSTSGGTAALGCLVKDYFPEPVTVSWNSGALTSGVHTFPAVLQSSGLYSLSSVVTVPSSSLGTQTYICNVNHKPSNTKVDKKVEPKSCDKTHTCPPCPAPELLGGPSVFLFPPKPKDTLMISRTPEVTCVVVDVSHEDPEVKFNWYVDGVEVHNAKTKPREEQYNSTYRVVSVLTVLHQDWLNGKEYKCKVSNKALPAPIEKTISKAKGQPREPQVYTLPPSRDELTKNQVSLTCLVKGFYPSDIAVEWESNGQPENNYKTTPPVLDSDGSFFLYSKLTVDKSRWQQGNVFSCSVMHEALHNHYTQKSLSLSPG
light: B1 light
Regarding B3, in the assay with human NPRA, the “log EC50 ics, cGMP assay, stable hNPRA-CHO k1 cells” value was -8.8 log M; the “log EC50 pcs, cGMP assay, stable hNPRA-CHO k1 cells, average” value is -9.2 log M; the “log EC50 pcs, cGMP assay, transient hNPRA-HEK293 cells, average” value was -9 log M. The “EC50, fluorescence of cGMP reporter cells” value with rat ANP receptor (NPR-A) stood at 17 nM.
